By stoichiometry N is commonly meant a count of units in the complex or per binding partner.

Where “and” joins values, the source holds several entries; their conditions need not be identical. Identical values can stand only once.

Assay [1] concerns the target full-length HIV-1 WT integrase (HIV-1). Put plainly: cross-linking; IN (5 pmol, 0.5 uM) with the 5'-radiolabelled 38-bp PalA/PalB duplex (1 pmol, 0.1 uM; HIV-1 LTR-LTR junction) and AHDAP 300 uM, 0.05% NP40, 10 mM DTT, 20 mM HEPES pH 7.5, 37 C in the dark, 0 to 60 min; SDS-PAGE and autoradiography; IN oligomers seen bound to DNA.
The target is the same in assay [2]. Put plainly: cross-linking + SEC; covalent IN oligomers made by chemical cross-linking and separated by size-exclusion chromatography, as previously described [10]; dimers and tetramers recovered. In general terms: Size exclusion chromatography separates by hydrodynamic size, large species first.

For the substance full-length HIV-1 WT integrase (enzyme), the stoichiometry N in assay [1] is 2 and 4; in assay [2] it was 2 and 4.
